Experimental data taken from patent US10711248B2, “Device and method for standardizing myoblast differentiation into myotubes” (Cytoo, priority 2013, dated 2020).

Tested on: acetylcholine receptors (AChR) clustering in myotubes derived from human primary cells
Experiment: Acetylcholine receptor clustering in primary human myotubes cultured on micropatterns (TMR-Bungarotoxin probe)
Type: cell-based
Details: FIG. 8A/8B
Protocol: FIG. 8B is a quantification of the regulation of cluster formation through agrin and Wnt signaling;
C2C12 mouse or primary human myoblasts (HSMM, Lonza) were cultured on fibronectin coated micropatterns within growth medium (DMEM, 20% FBS, 0.5% P/S, or Lonza SkGM™-2 cell culture Kit respectively) during 24 hours. Then both cell types were cultured within differentiation medium (DMEM/F12, 2% Horse Serum, 0.5% P/S) during 5 to 11 days for HSMM and C2C12 respectively. Differentiation medium were changed every 2 days. Cells were fixed and an immunostaining was realized against myosin heavy chain (in green in a color image—in light grey in the appended black&white figures), actin (in red in a color image—in medium grey in the appended black&white figures) and nuclei (in blue in a color image—in dark grey in the appended black&white figures). Images were acquired using an epifluorescence microscope (DMI6000, Leica).

| Molecule | Effect on AChR clustering / cluster formation |
| --- | --- |
| agrin: treatment inducing acetylcholine receptor clustering in myotubes [reference compound] | large clustering |
| Wnt4: Wnt molecule known to stimulate AChR clustering in mice (protein, UniProt P56705 23-351, looked up) Protein Wnt-4: SNWLYLAKLSSVGSISEEETCEKLKGLIQRQVQMCKRNLEVMDSVRRGAQLAIEECQYQFRNRRWNCSTLDSLPVFGKVVTQGTREAAFVYAISSAGVAFAVTRACSSGELEKCGCDRTVHGVSPQGFQWSGCSDNIAYGVAFSQSFVDVRERSKGASSSRALMNLHNNEAGRKAILTHMRVECKCHGVSGSCEVKTCWRAVPPFRQVGHALKEKFDGATEVEPRRVGSSRALVPRNAQFKPHTDEDLVYLEPSPDFCEQDMRSGVLGTRGRTCNKTSKAIDGCELLCCGRGFHTAQVELAERCSCKFHWCCFVKCRQCQRLVELHTCR | stimulate |
| Wnt3a: Wnt molecule known to inhibit AChR clustering in mice (protein, UniProt P56704 19-352, looked up) Protein Wnt-3a: SYPIWWSLAVGPQYSSLGSQPILCASIPGLVPKQLRFCRNYVEIMPSVAEGIKIGIQECQHQFRGRRWNCTTVHDSLAIFGPVLDKATRESAFVHAIASAGVAFAVTRSCAEGTAAICGCSSRHQGSPGKGWKWGGCSEDIEFGGMVSREFADARENRPDARSAMNRHNNEAGRQAIASHMHLKCKCHGLSGSCEVKTCWWSQPDFRAIGDFLKDKYDSASEMVVEKHRESRGWVETLRPRYTYFKVPTERDLVYYEASPNFCEPNPETGSFGTRDRTCNVSSHGIDGCDLLCCGRGHNARAERRREKCRCVFHWCCYVSCQECTRVYDVHTCK | inhibit |
